Reference: article doi:10.1101/2020.11.13.381350 (bioRxiv, 2020)
“And” between values parts separate entries of the source, which are not always exact repeats. Equal entries are not always repeated.

Target: the molecule itself
Experiment: cross-linking

B1: 6xHis-WT-mVP40 (Marburg virus matrix protein VP40, wild type) (natural protein)
chain: MASSSNYNTYMQYLNPPPYADHGANQLIPADQLSNQQGITPNYVGDLNLDDQFKGNVCHAFTLEAIIDISAYNERTVKGVPAWLPLGIMSNFEYPLAHTVAALLTGSYTITQFTHNGQKFVRVNRLGTGIPAHPLRMLREGNQAFIQNMVIPRNFSTNQFTYNLTNLVLSVQKLPDDAWRPSKDKLIGNTMHPAVSIHPNLPPIVLPTVKKQAYRQHKNPNNGPLLAISGILHQLRVEKVPEKTSLFRISLPADMFSVKEGMMKKRGENSPVVYFQAPENFPLNGFNNRQVVLAYANPTLSAV
stoichiometry N: 6 and 4
